The numbers were not newly measured in publication PMC2678197, which cites them from elsewhere.

pKd: −log10 of the molar value. Some results are limits rather than exact numbers.

Series [1] addresses CCR5 N-terminal peptide (bis-sulfated) N-terminal region (Homo sapiens) (UniProt P51681). The series can be described thus: NMR.
In series [2] the target is CCR5 N-terminal peptide (unsulfated) N-terminal region (Homo sapiens) (UniProt P51681). As to the kind of experiment: NMR.
Series [3] addresses CCR3 N-terminal peptide (truncated, non-sulfated) 8-23 (Homo sapiens) (UniProt P51677).
For series [4], the target named is CCR3 N-terminal peptide (35 residues, non-sulfated) 1-35 (Homo sapiens) (UniProt P51677).
Chain of CCR3 N-terminal peptide (35 residues, non-sulfated) 1-35 (Homo sapiens) (P51677 1-35): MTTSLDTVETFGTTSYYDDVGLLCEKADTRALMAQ

Chain of eotaxin (P51671 24-97): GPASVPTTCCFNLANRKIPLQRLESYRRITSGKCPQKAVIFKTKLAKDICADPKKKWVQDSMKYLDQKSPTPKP
Chain of RANTES (P13501 27-91): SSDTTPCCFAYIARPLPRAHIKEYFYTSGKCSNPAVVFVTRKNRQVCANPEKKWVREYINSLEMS
Chain of CCR5 N-terminal peptide (bis-sulfated) N-terminal region (Homo sapiens) (P51681 1-27): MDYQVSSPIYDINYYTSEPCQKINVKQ

By pKd is commonly meant −log10 of the Kd, conventionally taken in molar units. With RANTES (from UniProt P13501), the pKd was more than 4.70 in series [1] and 3.77 in series [2].

eotaxin (from UniProt P51671): the pKd in series [3] was 3.87; in series [4] it was 4.10.
